From patent publication US20230406922A1 (SIMCERE ZAIMING PHARMACEUTICAL, published 2023)
Changes are numbered by the printed parent chain.

T1: human CD19, full length, on cells (human, UniProt P15391 20-556)
T1 construct: the endogenous CD19 of Raji cells is put under the same molecule (the cell type stands under assay); The entry holds the signal peptide; also called CHO-K1-human CD19; CHO-K1-human CD19-2C8
T1 sequence: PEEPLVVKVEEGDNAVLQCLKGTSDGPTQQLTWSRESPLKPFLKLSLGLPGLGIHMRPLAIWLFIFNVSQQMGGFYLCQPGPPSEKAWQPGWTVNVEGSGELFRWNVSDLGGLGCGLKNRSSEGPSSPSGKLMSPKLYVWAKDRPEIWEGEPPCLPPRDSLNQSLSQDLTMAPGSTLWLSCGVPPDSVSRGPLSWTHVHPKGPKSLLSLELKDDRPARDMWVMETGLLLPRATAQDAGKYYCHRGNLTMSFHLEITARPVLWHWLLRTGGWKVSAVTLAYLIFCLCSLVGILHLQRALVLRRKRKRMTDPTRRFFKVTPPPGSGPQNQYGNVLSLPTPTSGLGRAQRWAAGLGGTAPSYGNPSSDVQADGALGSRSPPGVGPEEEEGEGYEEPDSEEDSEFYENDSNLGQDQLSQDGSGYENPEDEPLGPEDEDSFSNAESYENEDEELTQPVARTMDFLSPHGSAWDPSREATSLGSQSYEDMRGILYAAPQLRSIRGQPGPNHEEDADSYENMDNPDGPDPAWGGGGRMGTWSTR

T2: human CD19-his protein (human, UniProt P15391 20-291)
T2 construct: also called recombinant human CD19-His; human CD19 protein; not shown: His tag
T2 sequence (looked up): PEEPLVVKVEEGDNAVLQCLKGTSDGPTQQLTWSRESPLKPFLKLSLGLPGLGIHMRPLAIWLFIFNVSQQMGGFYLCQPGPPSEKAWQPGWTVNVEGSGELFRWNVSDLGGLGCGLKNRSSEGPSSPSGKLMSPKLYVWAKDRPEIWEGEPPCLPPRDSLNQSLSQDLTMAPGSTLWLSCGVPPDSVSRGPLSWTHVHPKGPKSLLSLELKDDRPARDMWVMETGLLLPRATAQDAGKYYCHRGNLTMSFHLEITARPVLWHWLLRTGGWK

T3: murine CD19 protein (murine, UniProt P25918 19-287, limits assumed)
T3 construct: also called mouse CD19-his protein
T3 sequence (looked up): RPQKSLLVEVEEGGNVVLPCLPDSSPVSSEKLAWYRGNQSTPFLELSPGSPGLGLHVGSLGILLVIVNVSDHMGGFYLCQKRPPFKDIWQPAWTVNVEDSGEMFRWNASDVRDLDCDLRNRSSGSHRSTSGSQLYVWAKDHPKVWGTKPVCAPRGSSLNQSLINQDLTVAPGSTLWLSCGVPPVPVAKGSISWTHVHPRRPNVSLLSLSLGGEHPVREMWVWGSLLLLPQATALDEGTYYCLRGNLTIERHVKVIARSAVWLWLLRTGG

T4: human CD19 exon1-3-His protein (human, UniProt P15391 20-186)
T4 construct: Made in HEK293E cells, purified on nickel column; not shown: His tag
T4 sequence: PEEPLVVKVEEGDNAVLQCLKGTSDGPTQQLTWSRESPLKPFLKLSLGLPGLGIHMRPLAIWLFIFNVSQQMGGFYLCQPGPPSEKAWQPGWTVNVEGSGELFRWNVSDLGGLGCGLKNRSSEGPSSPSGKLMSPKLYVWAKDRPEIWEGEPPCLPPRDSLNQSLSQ

B1: FMC63.26-mIgG1 (antibody, V domains shown)
VH: EVTLKESGPVLVKPTETLTLTCTVSGFSLPDYGVSWIRQPPGKALEWLAVIWGSETTYYNSALKSRLTISKDTSKSQVVLTMTNMDPVDTATYYCAKHYYYGGSYAMDYWGQGTTVTVSS
VL: DIQMTQSPSSLSASVGDRVTITCRASQDISKYLNWYQQKPGGAVKLLIYHTSRLHSGVPSRFSGSGSGTDYTLTISSLQPEDFATYYCQQGNTLPYTFGGGTKVEIKR
notes: Humanized FMC63; also called FMC63-L2H6
B2: FMC63.25-mIgG1 (antibody, V domains shown)
VH: B1 VH with P30S
VL: B1 VL
notes: Humanized FMC63; also called FMC63-L2H5
B3: FMC63.27-mIgG1 (antibody, V domains shown)
VH: B1 VH with F27V, T73N
VL: B1 VL
notes: Humanized FMC63; also called FMC63-L2H7

Molecular target: T1, human CD19, full length, on cells
Assay: FACS on CHO-K1-human CD19 cells
Source text: (§1) The desired cells were expanded to a logarithmic growth phase in a T-75 cell culture flask. For adherent cells CHO-K1, the culture medium was removed by pipetting, and the cells were washed twice with a PBS buffer, digested with trypsin, and washed twice with a PBS buffer again after the digestion was stopped. For suspension cells Raji, the medium supernatant was discarded by direct centrifugation, and the cell pellet was washed twice with PBS. After cell counting of the cells obtained in the last step, the cell pellet was resuspended to 2×10⁶ cells/mL with a blocking solution [PBS+2% (w/w) BSA] and added into a 96-well FACS reaction plate at 50 μL/well. […] After the plate was centrifuged and washed 5 times with a PBS buffer, the results were assayed and analyzed by FACS (FACS Canto™, purchased from BD Biosciences). Data analysis was performed by software (CellQuest) to obtain the mean fluorescence intensity (MFI) of the cells. Then, analysis was performed by software (GraphPad Prism8), data were fitted, and EC₅₀ values were calculated.

| Binder | EC50 | maximum mean fluorescence intensity |
| --- | --- | --- |
| B1 | 1.12 nM | 31500 MFI |
| B2 | 0.79 nM | 33100 MFI |
| B3 | 1.33 nM | 29400 MFI |

Molecular target: T2, human CD19-his protein
Assay: ELISA, human CD19-his coated at 4 ug/mL
Description: A human CD19-his protein (purchased from ACROBiosystems, Cat. No. CD9-H52H2) was diluted with PBS to make a final concentration of 4 μg/mL, and then added into a 96-well ELISA plate at 100 μL/well. The plate was sealed with a plastic film and incubated at 4° C. overnight, wash twice with PBS the next day, and blocked at room temperature for 2 h by adding a blocking solution [PBS +2% (w/w) BSA]. […] After incubation for 2 h at 37° C., the plate was washed 3 times with PBS. […] After incubation for 1 h at 37° C., the plate was washed 5 times with PBS. A TMB substrate was added at 50 μL/well. After incubation at room temperature for 10 min, a stop solution (1.0 N HCl) was added at 50 μL/well. The OD450 nm values were read on an ELISA microplate reader (Multimode Plate Reader, EnSight, purchased from Perkin Elmer). […] The negative control antibody mIgG1 was an antibody against hen egg lysozyme, anti-hel-mIgG1 (purchased from Biointron, Cat. No. B118301), and the data in the table were OD450 nm values.

| Binder | OD450 at 0.0001 nM | OD450 at 0.001 nM | OD450 at 0.01 nM | OD450 at 0.10 nM | OD450 at 1.00 nM | OD450 at 10.00 nM | OD450 at 100.00 nM |
| --- | --- | --- | --- | --- | --- | --- | --- |
| B1 | 0.11 OD450 | 0.15 OD450 | 0.38 OD450 | 1.54 OD450 | 2.37 OD450 | 2.38 OD450 | 2.59 OD450 |
| B2 | 0.13 OD450 | 0.17 OD450 | 0.51 OD450 | 1.71 OD450 | 2.44 OD450 | 2.46 OD450 | 2.75 OD450 |
| B3 | 0.11 OD450 | 0.16 OD450 | 0.39 OD450 | 1.52 OD450 | 2.29 OD450 | 2.32 OD450 | 2.64 OD450 |

Molecular target: T1, human CD19, full length, on cells
Assay: FACS on Raji cells
Source text: as §1

| Binder | EC50 | maximum mean fluorescence intensity |
| --- | --- | --- |
| B1 | 0.32 nM | 8500 MFI |
| B2 | 0.33 nM | 9170 MFI |
| B3 | 0.3 nM | 7840 MFI |

Molecular target: T3, murine CD19 protein
Assay: ELISA, murine CD19 coated

| Binder | binding result |
| --- | --- |
| B1 | no binding (tested: 100 nM) |
| B2 | no binding (tested: 100 nM) |
| B3 | no binding (tested: 100 nM) |

Molecular target: T3, murine CD19 protein
Assay: ELISA, murine CD19 coated
Remark: another data set of the same source

| Binder | OD450 at 0.0001 nM | OD450 at 0.001 nM | OD450 at 0.01 nM | OD450 at 0.10 nM | OD450 at 1.00 nM | OD450 at 10.00 nM | OD450 at 100.00 nM |
| --- | --- | --- | --- | --- | --- | --- | --- |
| B1 | 0.08 OD450 | 0.07 OD450 | 0.06 OD450 | 0.07 OD450 | 0.08 OD450 | 0.09 OD450 | 0.13 OD450 |
| B2 | 0.08 OD450 | 0.08 OD450 | 0.08 OD450 | 0.08 OD450 | 0.08 OD450 | 0.08 OD450 | 0.09 OD450 |
| B3 | 0.06 OD450 | 0.06 OD450 | 0.06 OD450 | 0.05 OD450 | 0.06 OD450 | 0.08 OD450 | 0.11 OD450 |

Molecular target: T4, human CD19 exon1-3-His protein
Assay: ELISA on coated human CD19 exon1-3-His

| Binder | binding result |
| --- | --- |
| B1 | no binding (tested: 100 nM) |
| B2 | no binding (tested: 100 nM) |
| B3 | no binding (tested: 100 nM) |
